Measurements as given in patent US20240327522A1 (Genentech, published 2024).

Legend:
human αvβ1 = target: T1, human αvβ1 (human, UniProt P06756 31-992; P05556 21-728); experiment: SPR binding assay, sample hu.aVb1,3,5,6
T1 construct: Counter-screen integrin; construct not described; also called hu.aVb1; αVP1

human αvβ3 = target: T2, human αvβ3 (human, UniProt P06756 31-992; P05106 27-718); experiment: SPR binding assay, sample hu.aVb1,3,5,6
T2 construct: Counter-screen integrin; construct not described; also called hu.aVb3; αV03
T2 sequence (P05106 27-718 limits assumed, chain 2 of 2, one chain of several): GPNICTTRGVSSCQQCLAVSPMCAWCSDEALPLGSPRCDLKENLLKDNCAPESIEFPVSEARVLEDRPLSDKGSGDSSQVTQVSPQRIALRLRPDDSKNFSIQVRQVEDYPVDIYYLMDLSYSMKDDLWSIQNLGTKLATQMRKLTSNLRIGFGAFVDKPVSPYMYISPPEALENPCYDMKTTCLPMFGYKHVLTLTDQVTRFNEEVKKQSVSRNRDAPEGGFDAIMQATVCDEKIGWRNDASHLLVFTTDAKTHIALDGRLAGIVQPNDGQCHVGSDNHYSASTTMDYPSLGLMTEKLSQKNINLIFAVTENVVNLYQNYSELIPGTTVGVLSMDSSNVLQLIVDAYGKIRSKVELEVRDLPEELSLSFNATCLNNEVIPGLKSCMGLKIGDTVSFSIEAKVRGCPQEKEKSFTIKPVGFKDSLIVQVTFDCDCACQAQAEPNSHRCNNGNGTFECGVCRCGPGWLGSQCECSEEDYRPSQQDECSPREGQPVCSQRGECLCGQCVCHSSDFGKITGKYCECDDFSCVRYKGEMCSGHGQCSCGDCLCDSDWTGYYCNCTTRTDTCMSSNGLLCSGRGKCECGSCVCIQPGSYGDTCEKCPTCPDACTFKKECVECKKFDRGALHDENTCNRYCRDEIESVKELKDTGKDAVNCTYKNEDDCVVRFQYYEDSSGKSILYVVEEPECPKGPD

human αvβ5 = target: T3, human αvβ5 (human, UniProt P06756 31-992; P18084 24-719); experiment: SPR binding assay, sample hu.aVb1,3,5,6
T3 construct: Counter-screen integrin; construct not described; also called hu.aVb5; αV05
T3 sequence (P18084 24-719 limits assumed, one chain of several): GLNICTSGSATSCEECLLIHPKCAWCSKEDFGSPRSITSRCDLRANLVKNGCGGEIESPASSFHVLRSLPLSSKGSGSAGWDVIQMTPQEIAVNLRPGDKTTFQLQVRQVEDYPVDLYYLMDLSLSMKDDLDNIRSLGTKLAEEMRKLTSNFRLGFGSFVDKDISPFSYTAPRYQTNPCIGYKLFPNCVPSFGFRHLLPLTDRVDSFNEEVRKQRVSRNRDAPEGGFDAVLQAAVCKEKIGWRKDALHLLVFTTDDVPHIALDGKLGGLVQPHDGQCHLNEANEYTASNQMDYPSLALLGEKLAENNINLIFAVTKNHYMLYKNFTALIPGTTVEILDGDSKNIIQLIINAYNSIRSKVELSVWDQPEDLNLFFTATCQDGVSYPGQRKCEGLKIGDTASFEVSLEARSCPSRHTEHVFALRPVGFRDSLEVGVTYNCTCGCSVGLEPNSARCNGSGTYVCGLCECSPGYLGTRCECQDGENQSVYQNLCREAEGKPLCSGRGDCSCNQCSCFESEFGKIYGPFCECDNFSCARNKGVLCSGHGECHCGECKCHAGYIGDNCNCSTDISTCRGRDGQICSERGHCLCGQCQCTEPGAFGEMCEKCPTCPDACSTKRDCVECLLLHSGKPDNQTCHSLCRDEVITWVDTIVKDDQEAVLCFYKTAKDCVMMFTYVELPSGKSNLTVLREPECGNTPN

human αvβ6 = target: T4, human αvβ6 (human, UniProt P06756 31-992; P18564 22-709); experiment: SPR binding assay, sample hu.aVb1,3,5,6
T4 construct: Counter-screen integrin; construct not described; also called hu.aVb6; αV06
T4 sequence (P18564 22-709 limits assumed, one chain of several): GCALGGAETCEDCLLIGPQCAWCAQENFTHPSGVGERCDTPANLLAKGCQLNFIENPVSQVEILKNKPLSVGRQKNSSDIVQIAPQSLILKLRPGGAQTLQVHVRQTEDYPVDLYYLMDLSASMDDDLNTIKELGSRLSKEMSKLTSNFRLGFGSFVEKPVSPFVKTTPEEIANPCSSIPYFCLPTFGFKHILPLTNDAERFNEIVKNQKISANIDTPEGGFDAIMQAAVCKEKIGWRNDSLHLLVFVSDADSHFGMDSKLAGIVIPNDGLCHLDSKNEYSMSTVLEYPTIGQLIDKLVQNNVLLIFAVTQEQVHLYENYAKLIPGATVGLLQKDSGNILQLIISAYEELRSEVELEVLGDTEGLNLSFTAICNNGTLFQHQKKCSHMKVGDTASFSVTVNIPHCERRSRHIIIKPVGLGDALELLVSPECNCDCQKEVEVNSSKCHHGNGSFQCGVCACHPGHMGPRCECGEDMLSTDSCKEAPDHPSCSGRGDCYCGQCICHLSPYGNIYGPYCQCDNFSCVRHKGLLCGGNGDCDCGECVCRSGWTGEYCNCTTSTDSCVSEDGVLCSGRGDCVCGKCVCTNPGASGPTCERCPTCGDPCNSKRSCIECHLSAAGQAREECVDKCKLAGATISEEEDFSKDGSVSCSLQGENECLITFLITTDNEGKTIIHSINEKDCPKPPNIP

[1] = target: T5, recombinant human αvβ8 protein (PARS-17102) (human); experiment: SPR, Biacore T200, Protein A capture, human αvβ8 analyte 0-100 nM, 37 C, 1:1 model (comparison with hADWA11-2.4, FIG. 9B)
T5 construct: also called hu.aVb8.17102; not shown: C-terminal acid/basic coils and any purification tags
T5 alpha: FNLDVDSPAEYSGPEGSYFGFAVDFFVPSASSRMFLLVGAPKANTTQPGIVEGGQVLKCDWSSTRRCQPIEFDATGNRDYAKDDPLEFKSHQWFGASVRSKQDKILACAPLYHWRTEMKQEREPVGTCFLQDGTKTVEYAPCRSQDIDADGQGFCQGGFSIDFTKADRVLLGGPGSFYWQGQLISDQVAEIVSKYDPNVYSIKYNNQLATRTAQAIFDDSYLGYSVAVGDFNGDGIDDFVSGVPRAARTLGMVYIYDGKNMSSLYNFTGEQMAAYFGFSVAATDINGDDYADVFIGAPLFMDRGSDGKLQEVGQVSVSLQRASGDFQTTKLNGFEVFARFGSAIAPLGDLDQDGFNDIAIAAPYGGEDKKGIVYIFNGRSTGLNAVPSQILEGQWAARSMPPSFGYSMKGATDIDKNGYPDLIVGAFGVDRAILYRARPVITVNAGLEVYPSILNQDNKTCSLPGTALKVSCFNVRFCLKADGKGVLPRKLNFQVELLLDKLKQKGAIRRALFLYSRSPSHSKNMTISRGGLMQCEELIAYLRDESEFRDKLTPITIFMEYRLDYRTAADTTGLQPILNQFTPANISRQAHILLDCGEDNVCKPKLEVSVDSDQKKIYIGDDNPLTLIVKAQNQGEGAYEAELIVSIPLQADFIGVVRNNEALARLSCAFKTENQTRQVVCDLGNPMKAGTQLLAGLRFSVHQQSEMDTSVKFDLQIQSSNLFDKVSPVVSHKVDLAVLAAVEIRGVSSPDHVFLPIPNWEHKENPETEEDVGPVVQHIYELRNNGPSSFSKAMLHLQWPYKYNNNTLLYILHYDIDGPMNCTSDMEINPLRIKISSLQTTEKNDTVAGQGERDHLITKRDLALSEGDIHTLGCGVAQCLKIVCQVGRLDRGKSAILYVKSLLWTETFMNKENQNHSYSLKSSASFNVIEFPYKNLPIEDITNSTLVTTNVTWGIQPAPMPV
T5 beta: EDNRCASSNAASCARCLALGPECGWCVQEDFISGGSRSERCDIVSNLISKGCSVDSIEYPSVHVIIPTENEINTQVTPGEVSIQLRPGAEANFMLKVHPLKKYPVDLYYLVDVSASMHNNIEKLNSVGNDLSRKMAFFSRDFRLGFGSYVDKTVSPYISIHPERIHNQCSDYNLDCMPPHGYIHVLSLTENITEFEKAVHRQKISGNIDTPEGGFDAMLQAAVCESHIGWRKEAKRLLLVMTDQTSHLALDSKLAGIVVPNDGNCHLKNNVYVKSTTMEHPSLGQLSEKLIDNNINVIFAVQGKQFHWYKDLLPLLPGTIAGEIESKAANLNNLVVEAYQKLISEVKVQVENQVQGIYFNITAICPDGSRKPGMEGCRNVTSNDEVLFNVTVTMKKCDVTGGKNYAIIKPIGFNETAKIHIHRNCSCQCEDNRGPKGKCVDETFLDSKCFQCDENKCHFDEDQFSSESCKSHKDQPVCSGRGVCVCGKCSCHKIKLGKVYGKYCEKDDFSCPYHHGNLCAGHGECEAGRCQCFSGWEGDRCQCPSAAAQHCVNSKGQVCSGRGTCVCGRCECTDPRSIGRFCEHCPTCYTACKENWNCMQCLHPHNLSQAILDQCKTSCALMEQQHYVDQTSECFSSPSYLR
Description: The antibodies were first captured either on a Biacore™ Protein A biosensor chip (Cytiva Life Sciences) or on an anti-murine Fc chip to achieve approximately 60 response units. Binding measurements were performed using a running buffer composed of 10 mM HEPES (pH 7.4), 150 mM NaCl, 0.5 mM CaCl₂), and 0.005% Surfactant P20 (Cytiva Life Sciences). For comparison between αvβ8-65 and hC6D4, a 5-fold dilution series of human αvβ8 (range, 0-100 nM in running buffer) was injected into the Biacore™ T200. For comparison between αvβ8-65 and hADWA11-2.4, a 5-fold dilution series of human αvβ8 (range, 0-100 nM in running buffer) was injected. For comparison of all three antibodies in the murine Fc format, a 5-fold dilution series of human αvβ8 (range, 0-50 nM in running buffer) was injected. All injections were performed over 180 seconds, with a dissociation time of 1200 seconds, at a flow rate of 100 μL/minute and a temperature of 37° C. Between sample injections, a regeneration reagent (10 mM glycine pH 1.5 for protein A chip; 10 mM glycine pH 1.7 for anti-murine Fc chip) was injected to regenerate the sensor chip (twice, over 30 seconds at 10 μL/minute for each injection). To determine the binding kinetics and affinity constants of the antibodies to human αvβ8 protein, the signal from the reference flow cell (FC1, with only protein A on the surface) was “double referenced” by subtracting the signal observed after injecting the sample over FC1, followed by subtracting the signal observed after injecting only running buffer. The kinetic constants were calculated using nonlinear regression fitting of the data, according to a 1:1 Langmuir binding model, using Biacore™ Evaluation Software (Cytiva Life Sciences).
The values of the kinetic constants kon, koff, and KD for the binding of αvβ8-65, hC6D4 and ADWA11-2.4 to the various species of αvβ8 proteins are summarized in Table 13. A 1:1 Langmuir binding model was used to determine the KD values. The sensograms observed for the bindings of the various αvβ8 proteins to the captured antibody are shown in FIG. 9A, FIG. 9B, and FIG. 10.

T1 sequence (P05556 21-728 limits assumed, one chain of several): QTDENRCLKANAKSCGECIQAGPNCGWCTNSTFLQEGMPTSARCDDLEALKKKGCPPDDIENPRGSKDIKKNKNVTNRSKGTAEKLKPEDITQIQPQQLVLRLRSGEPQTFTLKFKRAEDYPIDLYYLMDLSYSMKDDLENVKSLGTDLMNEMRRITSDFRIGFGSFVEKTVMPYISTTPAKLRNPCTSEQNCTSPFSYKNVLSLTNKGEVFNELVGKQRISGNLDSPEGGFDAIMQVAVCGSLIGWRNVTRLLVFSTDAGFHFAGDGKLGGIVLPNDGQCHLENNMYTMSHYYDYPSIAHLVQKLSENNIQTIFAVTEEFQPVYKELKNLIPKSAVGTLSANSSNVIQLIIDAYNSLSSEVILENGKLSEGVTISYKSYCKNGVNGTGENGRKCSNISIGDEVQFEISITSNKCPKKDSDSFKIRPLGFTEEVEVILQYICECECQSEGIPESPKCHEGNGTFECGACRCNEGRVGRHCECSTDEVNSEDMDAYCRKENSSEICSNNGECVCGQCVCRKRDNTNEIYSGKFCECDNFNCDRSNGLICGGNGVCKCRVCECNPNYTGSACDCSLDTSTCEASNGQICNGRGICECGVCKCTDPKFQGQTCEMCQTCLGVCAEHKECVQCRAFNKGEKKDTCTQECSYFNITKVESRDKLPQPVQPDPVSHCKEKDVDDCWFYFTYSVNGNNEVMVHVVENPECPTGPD

B1: Hu.aVb8-65.H15L2 (aVb8-65.H15L2.hIgG1.LALAPG) (antibody, V domains shown)
VH: EVQLLESGGGLVQPGGSLRLSCAASGIDLSNYAMIWVRQAPGKGLEWVGIISSSDRIWYASWVKGRFTISRDNSKNTLYLQMNSLRAEDTAVYYCSRSVSNSYFDGWNLWGQGTLVTVSS
VL: DIQMTQSPSSVSASVGDRVTITCQASENINSLLAWYQQKPGKAPKLLIYRASTLASGVPSRFSGSGSGTDFTLTISSLQPEDFATYYCQSNYGFTGSGAFFYGFGQGTKVEIKR
notes: Human IgG1 LALAPG; also called PARS-20475-65 (IH) aVb8-65.H15L2.hIgG1.LALAPG; humanized αvβ8-65
Does B1 bind (human αvβ1)?
Result: no binding

Does B1 bind (human αvβ3)?
Result: no binding

Does B1 bind (human αvβ5)?
Result: no binding

Does B1 bind (human αvβ6)?
Result: no binding

And the Kd [1]?
The Kd was 0.528 nM.

And the koff [1]?
The koff was 9.58e-05 s⁻¹.

What about the kon [1] of the same binder?
The kon was 181000 M⁻¹ s⁻¹.
